Measurements reported in patent US20090068102A1, “TREATING STROKE” (BIOGEN IDEC MA INC., priority 2005, published 2009).

B1: rhTWEAK: recombinant soluble human TWEAK containing amino-acid residues A106-H249 (protein, UniProt O43508 106-249, looked up, fragment)
chain: AIAAHYEVHPRPGQDGAQAGVDGTVSGWEEARINSSSPLRYNRQIGEFIVTRAGLYYLYCQVHFDEGKAVYLKLDLLVDGVLALRCLEEFSATAASSLGPQLRLCQVSGLLALRPGSSLRIRTLPWAHLKAAPFLTYFGLFQVH

How the values were obtained:
[1] = system: NF-κB; assay: NF-κB luciferase reporter (pNF-κB-Luc) in transfected cortical neurons; assay type: cell-based, mouse
Procedure: (§1) Cell culture and transient transfection. Cortical neurons were prepared from embryonic day 16 (E16) mice. For transfection, cells were plated on 24-well plates precoated with poly-D-lysine (50 ng/ml) at a density of 200,000 cells per well. For RNA preparation, 2 million cells per well were plated on six-well plates. Cells were incubated in NEUROBASAL™ medium (Invitrogen) supplemented with B27 (Invitrogen), L-glutamine (0.5 mM), penicillin (100 IU/ml), and streptomycin (100 μg/ml). In these cultures, >95% of cells were positive for the neuronal marker NeuN. After 10 days in vitro, cells were transfected using LIPOFECTAMINE™ 2000 (Invitrogen) and 1 ng per well of the NF-κB reporter plasmid pNF-κB-Luc, which has five tandem repeats of an NF-κB binding site (Stratagene, Amsterdam, The Netherlands), according to the manufacturer's protocol. After 24 hours, cells were stimulated as indicated and harvested. Luciferase activity was measured as described (Sallmann et al. (2000) J. Neurosci. 20:8637-8642).
(§2) As indicated, cortical neurons were prepared from a transgenic mouse line (NSE-IκBα-SR) that expressed the NF-κB super-repressor, a mutant of IκBα (IκBα-SR), selectively in neurons. In this transgene, two serine residues, which are phosphorylated by the IκB kinase (IKK), are exchanged to alanines. Neuronal expression is driven by a 1.8 KB fragment of the rat neuron-specific enolase (NSE) promoter. The cell dissociation was performed individually from the brain of each transgenic or wild-type embryo. To control for transfection efficiency, cortical neurons of NSE-IκBα-SR mice and wild-type littermates were cotransfected with 0.1 μg Per well of phRL-TK (Promega, Mannheim, Germany) in addition to pNF-κB-Luc.

[2] = system: cortical neurons; assay: Cell Death Detection ELISA (histone-associated DNA fragments) in cortical neurons; assay type: cell-based, mouse; details: 100 ng/ml, 24 hr
Procedure: Cell death assays. For terminal deoxynucleotidyl transferase-mediated biotinylated UTP nick end labeling (TUNEL) staining, the cells were fixed in 4% paraformaldehyde at room temperature for 30 minutes. Then, cells were washed twice in PBS for 5 minutes and treated for 2 minutes with 200 μl of permeabilization solution (0.1% Triton X-100 and 0.1% sodium citrate in PBS) at 4° C. After washing, sections were incubated with 50 μl of TUNEL reaction mix (enzyme solution diluted 1:6 in labeling solution; In Situ Cell Detection Kit, Fluorescein; Roche, Mannheim, Germany) for 1 hour at 37° C. in the dark. Then, coverslips were mounted with medium containing 4′,6-diamidino-2-phenylindole dihydrochloride (DAPI; VECTASHIELD®; Vector Laboratories, Burlingame, Calif.). TUNEL and DAPI-positive cells were detected under a fluorescent microscope. On each coverslip, five randomly selected fields were counted with a 40× objective (corresponding to ˜800 cells per coverslip). Cell Death Detection ELISA^Plus (Roche) was performed according to the manufacturer's instructions. Lactate dehydrogenase (LDH) activity in medium was quantified with the Cytotoxicity Detection Kit (LDH; Roche). LDH activity in untreated sister cultures was subtracted, and the LDH activity was expressed as percentage of the maximally releasable LDH pool in the presence of 1 mM glutamate.

[3] = system: cortical neurons; assay: TWEAK-induced cell death in cortical neurons (DAPI and TUNEL staining); assay type: cell-based
Procedure: as §1
as §2, with “To control for transfection efficiency, cortical neurons of NSE-IκBα-SR mice and wild-type littermates were cotransfected with 0.1 μg Per well of phRL-TK (Promega, Mannheim, Germany) in addition to pNF-κB-Luc.” left out
Cell death assays. […] TUNEL and DAPI-positive cells were detected under a fluorescent microscope. On each coverslip, five randomly selected fields were counted with a 40× objective (corresponding to ˜800 cells per coverslip). […] Lactate dehydrogenase (LDH) activity in medium was quantified with the Cytotoxicity Detection Kit (LDH; Roche). LDH activity in untreated sister cultures was subtracted, and the LDH activity was expressed as percentage of the maximally releasable LDH pool in the presence of 1 mM glutamate.

[4] = exposure for 24 hours, 100 ng/ml

Row | Molecule | NF-κB activation by rhTWEAK and Fc-hTWEAK ([1]; BMS-345541 25 μM) | DNA-histone complexes specific to apoptotic DNA fragmentation (ELISA) [2] | effect size in DNA-histone ELISA compared with camptothecin ([2]; vs 10 μM camptothecin) | NF-κB stimulation in neurons of NSE-IκBα-SR mice vs wild-type littermates ([1]; rhTWEAK 100 ng/ml) | NF-κB activity (luciferase) ([1]; stimulation for 24 hours) | nuclear condensation (DAPI stain) [3, 4] | number of cortical neurons that were TUNEL positive [3, 4] | cell death (TUNEL) in IκBα-SR-expressing neurons vs wild-type ([3]; rhTWEAK 100 ng/ml, 24 hours)
1 | Cc1ccc2nc(NCCN)c3ncc(C)n3c2c1 [BMS-345541, reference compound] | blocked |  |  |  |  |  |  | 
2 | B1 |  | programmed cell death being induced | comparable with the one with 10 μM camptothecin | significantly less | stimulated NF-κB activity in a concentration-dependent manner | induced nuclear condensation | increased significantly | protected from cell death
